According to the supplement of paper PMC10724198:

Experiments:
Saccharomyces cerevisiae [1] = test: protein stability index of tFT-peptide fusion in wild type (PSI (0-1 scale)); higher = more stable (slower turnover); conditions: genetic background: wild type
Saccharomyces cerevisiae [2] = test: protein stability index of tFT-peptide fusion in deletion strain of DOA10 (PSI (0-1 scale)); higher = more stable (slower turnover)
Description: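 MPS profiling in S. cerevisiae of two library types built from selected 12-aa C-degron peptides (IN1, IN2, LN1, LN3, VN2, R1-R5, W1-W3, Atg1 and Rpa12 C-termini): saturation mutagenesis libraries and C-terminal +1 capping libraries (13 aa). Each peptide is fused to the C-terminus of a sfGFP-mCherry timer, after a GGGS linker. Cells are FACS-sorted into 8 mCherry/sfGFP bins and sequenced. PSI runs from 0 (unstable) to 1 (stable), measured once in wild type and in the das1Δ or doa10Δ background.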
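Throughout, for protein stability index of tFT-peptide fusion in deletion strain of DOA10: PSI per variant is the weighted mean of its sequencing read distribution over the sorted stability bins, counting only variants with over 10 reads summed across bins.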
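Throughout, for protein stability index of tFT-peptide fusion in wild type: PSI derived as read-weighted mean over the 8 sorting bins, only variants exceeding 10 total reads kept, mCherry placed adjacent to the peptide and sfGFP distal.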

| Sequence | protein stability index (Saccharomyces cerevisiae [1]) | protein stability index (Saccharomyces cerevisiae [2]) |
| --- | --- | --- |
| RSLRVFLPLYFR | 0.127 | 0.693 |
| CLVSLPILLFFRH | 0.0656 | 0.577 |
| RSLRVLLGLYFR | 0.392 | 0.662 |
| RVTRLDAIYFRIC | 0.0626 | 0.103 |
| CLVSLPLLLFFR | 0.0578 | 0.606 |
| GEYMCSVGCWFR | 0.425 | 0.667 |
| RVTRLDAIYFRIN | 0.0776 | 0.125 |
| AITLPMCPLLLRL | 0.12 | 0.563 |
| RSLRVLLALYFR | 0.287 | 0.552 |
| CLRSLPILLFFR | 0.0732 | 0.619 |
| AITLPMCPLWLR | 0.239 | 0.695 |
| GLYMCSVGCWFRC | 0.188 | 0.433 |
| RVTRLDHIYFRI | 0.281 | 0.717 |
| AITLPMCPLLLP | 0.627 | 0.675 |
| RSLRVLLPLGFR | 0.482 | 0.682 |
| RSLHVLLPLYFR | 0.273 | 0.634 |
| CLVSLPILLFFRD | 0.103 | 0.594 |
| RVTRLDASYFRI | 0.676 | 0.715 |
| CLVSLPILLFLR | 0.0512 | 0.564 |
| AITLPDCPLLLR | 0.437 | 0.711 |
| CLVSLGILLFFR | 0.276 | 0.436 |
| GLSMCSVGCWFR | 0.235 | 0.671 |
| GLYMCSVHCWFR | 0.371 | 0.453 |

| Sequence | protein stability index (Saccharomyces cerevisiae [1]) | protein stability index (Saccharomyces cerevisiae [2]) |
| --- | --- | --- |
| RSLRVLLPLQFR | 0.472 | 0.635 |
| CLVSLPGLLFFR | 0.126 | 0.656 |
| RSLRVLLPKYFR | 0.646 | 0.676 |
| RVTRWDAIYFRI | 0.165 | 0.368 |
| CLVSLPRLLFFR | 0.0729 | 0.664 |
| AITLPMAPLLLR | 0.253 | 0.666 |
| CLVNLPILLFFR | 0.0622 | 0.597 |
| GLYMCSVGCWFRI | 0.11 | 0.455 |
| RCLRVLLPLYFR | 0.257 | 0.647 |
| VSLRVLLPLYFR | 0.283 | 0.611 |
| CWVSLPILLFFR | 0.0534 | 0.54 |
| RVTRLDAIYFRIM | 0.0601 | 0.129 |
| RSLRALLPLYFR | 0.491 | 0.684 |
| GLYECSVGCWFR | 0.526 | 0.678 |
| RVTRLDAIYFRR | 0.653 | 0.708 |
| AITLPMCPILLR | 0.216 | 0.619 |
| RVTRLDAIVFRI | 0.534 | 0.693 |
| RVTALDAIYFRI | 0.558 | 0.69 |
| GLYMCSVGEWFR | 0.663 | 0.686 |
| ELYMCSVGCWFR | 0.388 | 0.651 |
| ESLRVLLPLYFR | 0.308 | 0.683 |
| RSLTVLLPLYFR | 0.24 | 0.662 |
| RSDRVLLPLYFR | 0.352 | 0.696 |
